Read-outs that look alike come from different tables or passages of the source.

In general, EC50 refers to the concentration that produces a half-maximal response. Low values mean a more potent agent, high ones a less potent agent.

For test [1], the target named is T1, human CD200R1 isoform a on CHOK1 cells (CHOK1/hCD200R1a) (human, UniProt Q8TD46 25-348).
T1 construct: also called CHOK1/CD200R1a
T1 sequence: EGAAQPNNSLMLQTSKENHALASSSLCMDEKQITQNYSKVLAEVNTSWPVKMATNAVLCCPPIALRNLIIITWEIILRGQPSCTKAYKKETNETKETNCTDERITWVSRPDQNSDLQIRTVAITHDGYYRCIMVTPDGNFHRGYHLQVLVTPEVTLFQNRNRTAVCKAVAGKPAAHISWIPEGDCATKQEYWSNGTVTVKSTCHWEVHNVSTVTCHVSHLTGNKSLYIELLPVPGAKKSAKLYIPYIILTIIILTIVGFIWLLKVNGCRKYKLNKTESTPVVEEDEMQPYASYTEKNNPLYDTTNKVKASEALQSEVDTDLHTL
The test is described as follows: flow cytometry blocking assay: biotin-labelled human CD200 binding to CHOK1/hCD200R1a cells; y axis Inhibition %. How it is done: (§1) In brief, CHOK1/hCD200R1a cells were digested and resuspended in 2% BSA in PBS. […] The cells were placed at 4° C. and incubated for 1 hour in the dark. […] 100 μL/well of pre-cooled PBS containing 2% BSA was added to rinse the cells twice, centrifugation was performed at 500 g, 4° C. for 5 minutes, and the supernatant was discarded. Fluorescent secondary antibody (PE Streptavidin, BD, Cat #: 554061, 1:200) was added at 100 μL/well, and incubation was performed at 4° C. for 30 minutes in the dark. The cells were washed twice with 200 μL/well of pre-cooled PBS, and were centrifuged at 500 g, 4° C. for 5 minutes, and the supernatant was discarded. Finally, 200 μL/well of pre-cooled PBS was used to resuspend the cells, and the fluorescence signal values were read using ACEA Novocyte 3000 flow cytometer. IC50 values were calculated.
On the technique in general: In flow cytometry, cells or beads pass a laser one at a time.

The target of test [2] is T1, human CD200R1 isoform a on CHOK1 cells …. The test is described as follows: flow cytometry, CHOK1/hCD200R1a cells (FITC-Mean); table beside the curves. The procedure: (§2) This example is intended to investigate the in vitro binding activity of human anti-CD200R1 monoclonal antibodies to human/Cynomolgus macaques CD200R1a expressed on the surface of cells. The anti-CD200R1 antibodies were produced as described in Example 3.4 and the binding experiments at the cell level were performed using CHOK1/hCD200R1a and CHOK1-cynoCD200R1a.
(§3) Briefly, CHOK1/hCD200R1a cells and CHOK1-cynoCD200R1a cells were digested, and collected, and then were resuspended in PBS containing 2% BSA, respectively. The cell density was adjusted to 1×10⁶ cells/mL. The cells were seeded in a 96-well V-bottom plate (Corning, #3894) at 100 μL/well, followed by the addition of test antibodies and reference antibodies in a series diluted concentration, each at 100 μL/well. The cells were incubated away from light at 4° C. for 1 h. Thereafter, the cells in each well were rinsed twice with 100 μL of pre-cooled PBS containing 2% BSA, and centrifuged at 500 g at 4° C. for 5 min, and then the supernatant was discarded. 100 μL of fluorescent secondary antibody (Alexa Fluor 488-conjugated AffiniPure Goat Anti-Human IgG, Fcγ Fragment Specific, Jackson, #109-545-098, diluted in a 1:1000 ratio) was added in each well, and the plate was incubated away from light at 4° C. for 1 h. The cells in each well were rinsed twice with 100 μL of pre-cooled PBS containing 2% BSA, and centrifuged at 500 g at 4° C. for 5 min, and then the supernatant was discarded. Finally, the cells in each well were resuspended in 200 μL of pre-cooled PBS containing 2% BSA, and the fluorescence signal values were read using a BD CantoII flow cytometer.

The target is the same in test [3]. Put plainly: flow cytometry, CHOK1/hCD200R1a cells (FITC-Mean); table beside the curves, head without unit, x axis Log [Ab] (nM).
Test [4] deals with T2, Cynomolgus macaques CD200R1 isoform a on CHOK1 cells (CHOK1/cynoCD200R1a) (Cynomolgus macaques).
T2 chain: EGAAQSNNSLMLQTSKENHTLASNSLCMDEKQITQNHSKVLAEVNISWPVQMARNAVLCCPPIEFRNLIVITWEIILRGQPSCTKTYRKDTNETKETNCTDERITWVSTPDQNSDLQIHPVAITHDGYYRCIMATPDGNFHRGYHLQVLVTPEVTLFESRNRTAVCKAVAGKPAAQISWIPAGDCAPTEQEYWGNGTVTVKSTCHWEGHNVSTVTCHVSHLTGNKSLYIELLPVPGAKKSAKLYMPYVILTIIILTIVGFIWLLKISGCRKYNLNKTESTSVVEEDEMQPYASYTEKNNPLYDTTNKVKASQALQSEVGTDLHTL
The test is described as follows: flow cytometry, CHOK1/cynoCD200R1a cells (APC-A Mean); table beside the curves.

The target in test [5] is T1, human CD200R1 isoform a on CHOK1 cells …. Put plainly: flow cytometry blocking assay: antibody titrated against biotin-labelled human CD200 binding to CHOK1/hCD200R1a cells; head prints EC50 without unit, x axis Log [Ab] (nM), y axis Inhibition %. How it is done:
as §1

The target in test [6] is T3, CD200R1a on PathHunter Jurkat CD200R1a signaling cells (Eurofins DiscoverX, 93-1136C19) (human, UniProt Q8TD46 25-348).
T3 sequence: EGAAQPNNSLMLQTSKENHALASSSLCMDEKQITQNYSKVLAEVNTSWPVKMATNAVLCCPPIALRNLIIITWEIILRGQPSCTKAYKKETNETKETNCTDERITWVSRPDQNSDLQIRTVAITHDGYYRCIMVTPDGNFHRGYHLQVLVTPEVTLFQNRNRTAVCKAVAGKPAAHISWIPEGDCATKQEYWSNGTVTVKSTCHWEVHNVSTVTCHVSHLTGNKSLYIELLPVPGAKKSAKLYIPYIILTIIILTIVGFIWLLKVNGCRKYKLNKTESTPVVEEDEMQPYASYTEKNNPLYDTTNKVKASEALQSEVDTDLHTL
The test is described as follows: cell-based or functional assay.

In test [7] the target is T2, Cynomolgus macaques CD200R1 isoform a …. Put plainly: flow cytometry, CHOK1/cynoCD200R1a cells (APC-A Mean); table beside the curves.
Test [8] deals with T1, human CD200R1 isoform a on CHOK1 cells …. Put plainly: flow cytometry, CHOK1/hCD200R1a cells (FITC-Mean); table beside the curves, head without unit, x axis Log [Ab] (nM). This is another data set of the same source.
Test [9] shares this target. Put plainly: flow cytometry, CHOK1/hCD200R1a cells (FITC-Mean); table beside the curves. The procedure: as §2, §3
The source holds these as a separate data set.

Test [10] has the same target. The test is described as follows: flow cytometry blocking assay: biotin-labelled human CD200 binding to CHOK1/hCD200R1a cells; y axis Inhibition %. The procedure: as §1
The source holds these as a separate data set.

Test [11] has the same target. The test is described as follows: flow cytometry blocking assay: antibody titrated against biotin-labelled human CD200 binding to CHOK1/hCD200R1a cells; head prints EC50 without unit, x axis Log [Ab] (nM), y axis Inhibition %. The procedure:
as §1
The source holds these as a separate data set.

The target in a further test is T4, Mouse CD200R1-His (mouse, UniProt Q9ES57 26-238, limits assumed).
T4 sequence (looked up): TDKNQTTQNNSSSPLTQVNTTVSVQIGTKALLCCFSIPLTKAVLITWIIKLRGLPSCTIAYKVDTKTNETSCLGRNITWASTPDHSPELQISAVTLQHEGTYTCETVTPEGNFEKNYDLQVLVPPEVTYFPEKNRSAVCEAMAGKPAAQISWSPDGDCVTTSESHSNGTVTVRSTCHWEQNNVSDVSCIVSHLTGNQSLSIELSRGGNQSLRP
The test is described as follows: BLI (Octet), antibody captured on anti-human Fc sensor. The procedure:
To determine the binding affinities of the anti-CD200R1 antibodies to CD200R1a proteins of various species (mouse, human, Cynomolgus macaques), bio-layer interferometry (BLI) assays were carried out using an Octet® RED96e instrument. Antibodies were produced as described in Example 3.4 and diluted to 5 μg/mL using freshly prepared 1× kinetic buffer (10× kinetic buffer (Catalog #18-1105, ForteBio) was diluted with PBS(Catalog #E607016-0500, BBI Life Sciences)) and were captured on the surface of anti-human Fc (AHC) Octet biosensors (Catalog #18-5060, ForteBio) to reach capture levels between 0.9-1.2 nm. The biosensors having the captured anti-CD200R1 antibodies were then dipped in wells containing 2-fold serial dilutions of CD200R1a proteins to detect association signals, followed by dissociation steps in wells containing 1× kinetic buffer. The sensorgrams were recorded and the reference signals were subtracted before curve fitting using ForteBio Data Analysis 11.0 software. Association rates (kₒₙ) and dissociation rates (koff) were calculated using a simple one-to-one Langmuir binding model. The equilibrium dissociation constant (KD) was calculated as the ratio of koff/kₒₙ.
A general note: In BLI a coated tip is dipped into the sample, and binding shifts an interference pattern.

For test [12], the target named is T3, CD200R1a on PathHunter Jurkat CD200R1a …. The test is described as follows: cell-based or functional assay. The source holds these as a separate data set.

B1: PR007444 (antibody, human IgG1, kappa)
heavy: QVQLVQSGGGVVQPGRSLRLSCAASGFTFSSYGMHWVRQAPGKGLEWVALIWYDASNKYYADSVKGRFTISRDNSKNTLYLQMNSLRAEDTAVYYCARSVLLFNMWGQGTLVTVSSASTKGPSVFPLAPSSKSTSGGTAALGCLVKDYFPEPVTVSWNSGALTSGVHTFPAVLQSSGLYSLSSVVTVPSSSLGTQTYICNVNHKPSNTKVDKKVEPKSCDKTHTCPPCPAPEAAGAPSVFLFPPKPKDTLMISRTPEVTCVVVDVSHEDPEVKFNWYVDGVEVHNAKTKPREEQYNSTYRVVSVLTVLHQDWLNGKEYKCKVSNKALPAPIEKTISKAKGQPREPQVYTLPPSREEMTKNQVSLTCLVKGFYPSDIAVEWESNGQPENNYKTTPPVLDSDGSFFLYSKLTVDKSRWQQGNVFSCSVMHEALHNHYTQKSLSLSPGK
light: DIQMTQSPPSLSASVGDRVTITCRASQSISSYLNWFQQKAGKAPKLLISATSNLQSGVPSRFSGSGSGTDFTLTISSLQPEDLATYYCQQTYSSPYTFGQGTKVEIKRTVAAPSVFIFPPSDEQLKSGTASVVCLLNNFYPREAKVQWKVDNALQSGNSQESVTEQDSKDSTYSLSSTLTLSKADYEKHKVYACEVTHQGLSSPVTKSFNRGEC
notes: PTM variant of PR006895 (human IgG1)
As to B1, the “Blocking(Max)” value in test [1] amounted to 86.6%. In [2], the “MFI(Max)” value was 10800. For the same molecule, the EC50 turned out to be 0.15 nM in test [3], 8.74 nM in test [4] and 0.0926 nM in [5]. The “MFI (MAX)” value in [4] was determined as 51700. Further, the “IC50 of the inhibition of CD200-induced PathHunter Jurkat CD200R1a luminescence (CHOK1/hCD200 cells as CD200 source)” value in test [6] was found to be 0.755 nM.

B2: PR007974 (antibody, human IgG1, kappa, V domains shown)
VH: QVQLVESGGGVVQPGRSLRLSCAASGFTFSYYGFHWVRQAPGKGLEWLGLIWSDARHKDYADSVKGRFTISRDNSKNTLYLQMNSLRAEDTAVYYCARDRIVGEGFDYWGQGTLVTVSS
VL: DIVMTQSPLSLPVTPGEPASISCRSSQSLLHRSGYNYLDWYLQKPGQSPQLLIYLGSYRASGVPDRFSGSGSGTDFTLKISRVEAEDVGVYYCQQGIQTTYTFGQGTKLEIKR
notes: PTM variant of PR006839 (human IgG1)
B2: the EC50 in test [7] turned out to be 6.82 nM; in [8] it was 0.277 nM; in test [11] it was 0.24 nM. For the same molecule, the “MFI (MAX)” value in [7] is 52200. The “MFI(Max)” value in test [9] turned out to be 18900. Moreover, in test [10], the “Blocking(Max)” value is 98%.

B3: PR005512 (antibody, human IgG1, kappa, L234A L235A, V domains shown)
VH: QVQLVESGGGVVQPGRSLRLSCVASGFTFSSYGMHWVRQAPGKGLEWVAIIWNDGSNRYYADSVKGRFTISRDNSKNTLYLQMNSLRAEDTAVYYCARDRIVGAGFDYWGQGTLVTVSS
VL: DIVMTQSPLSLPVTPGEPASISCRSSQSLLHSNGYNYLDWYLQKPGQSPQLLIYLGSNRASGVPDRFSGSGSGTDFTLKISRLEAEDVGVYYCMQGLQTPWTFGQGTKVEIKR
notes: also called PR60-012; PRE04512
Take B3: the binding result with Mouse CD200R1-His was “no binding”. For the same molecule, the “IC50 of the inhibition of CD200-induced PathHunter Jurkat CD200R1a luminescence (CHOK1/hCD200 cells as CD200 source); head without unit, x axis Log [Ab] (nM)” value in test [12] was 2.63 nM.

Values taken from patent US20250313626A1 (HARBOUR BIOMED SHANGHAI, published 2025).
